According to the RNAGym collection of RNA variant scans (doi:10.1073/pnas.2313332121):

B1: TPR t1 (parent)
chain: GACCAAUCUGCCCUCAGAGCUCGAGAACAUCUUCGGAUGCAGAGGAGGCAGGCUUCGGUGGCGCGAUAGCGCCAACGUCCUCAACCUCCAAUGCAUCCCACCACAUGAUGAUGCCUGAAGAGCCUUGGUUUUUUG

Variants of: B1
Experiment: polymerase ribozyme fitness, log enrichment relative to wild type (log ratio); higher = more active; in vitro selection for triplet polymerase activity
Method in brief: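 Mutant libraries were PCR-built and transcribed for each subunit of a heterodimeric triplet polymerase ribozyme and selected for one round in triplicate at −7 °C, frozen, before gel excision of extended constructs and streptavidin-bead capture. Input and output libraries were Illumina-sequenced, keeping genotypes with ≥10 input reads and ≥1 read per output. Fitness is a logarithmic ratio of genotype to wild-type enrichment, in base 2, using inverse-variance-weighted replicate averages.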

Row | Variant | polymerase ribozyme fitness (log ratio)
1 | A26G A105U | -3.51
2 | A26U C72G | -3.37
3 | A26U G36C G61U U81A U87C G120C | -4
4 | A26U C56G G69U | -2.73
5 | A26G U32C G60A C64U | -5.28
6 | A26U A50U C124G | -2.5
7 | A26G G57A | -2.54
8 | A26G G93A | -2.29
9 | A26U G42U G57A U78G U106A | -5.03
10 | A26U A50C U55G | -4.51
11 | A26U C88A | -3.45
12 | A26U A37C C72G G77A C124G | -2.81
13 | A26U C53U U116G | -6.15
14 | A26U G61A U116G A121G | -2.88
15 | A27C A118U | -2.67
16 | A26U C49U U54C G93C | -5.34
17 | A26G G63U A95U C99U | -5.64
18 | A26G A111U | -2.41
19 | A26G A46G G63A | -3.44
20 | A26U C82U | -3.73
21 | A26U G52U | -4.03
22 | A26U U78A G110U G120C U133G | -7.89
23 | A26U C85U C123A | -3.83
24 | A27C C73U | -3.12

Row | Variant | polymerase ribozyme fitness (log ratio)
25 | A26U C97A A121U | -5.2
26 | A26U A74U C88A G93A C101U | -5.3
27 | A26U A41C A46U G61A C101U | -4.43
28 | A26G G65A | -5.09
29 | A26U G60C C86G | -4.99
30 | A26G G61U | -1.54
31 | A26G C49G | -2.93
32 | A26U C34U U59C C85A G113A G127U | -6.04
33 | A27C C62U | -3.48
34 | A27C C62G | -4.48
35 | A26U A74G A121G | -1.18
36 | A26U C64A C115U | -6.23
37 | A26U C102A | -5.29
38 | A26U G135U | -4.2
39 | A26U G113A | -3.51
40 | A26U C86A G110A | -5.7
41 | A27C A46C C56G | -4.61
42 | A26G C49U C73A | -2.93
43 | A26U U126G | -4.96
44 | A26G C82U C124A G127C U133C G135U | -4.09
45 | A26U A43G G48U C94G G110A | -6.66
46 | A26U G61U U87G C98G A121U | -6.57
47 | A26G G63U | -3.45
48 | A26U A118C C123U | -3.12

Row | Variant | polymerase ribozyme fitness (log ratio)
49 | A26U C53A G61C U78A G110A | -5.96
50 | A27C C72U C124U | -0.653
51 | A26G C104U G110C C115A | -5.13
52 | A26G A84G C94A A95U | -4.63
53 | A26U G58U | -4.66
54 | A27C C70U | -3.87
55 | A26U G60A U130C | -2.93
56 | A27C C88G U129C | -4.24
57 | A26G G39U G69C C76U A95G G110A | -5.41
58 | A26U A46U C72U | -3.97
59 | A26U C34A G63C U112G G128C | -7.83
60 | A26U U96A C97A C124U | -5.98
61 | A26U C124A | -0.634
62 | A26U C53G C80U | -3.08
63 | A26U U38G A43U C73G C76U A111G | -7.42
64 | A26U C73A | -2.82
65 | A26U G45A G77U | -3.48
66 | A26G C62U | -1.47
67 | A26U G128C | -4.92
68 | A26U A50C G58A | -4.45
69 | A27C A111U A118U G120A | -5.36
70 | A26U C62U A83C C104G A105C C114U U129A | -7.45
71 | A27C A90U | -5.3
72 | A26U G61U | -3.08

Row | Variant | polymerase ribozyme fitness (log ratio)
73 | A27C C72G U81C | -4.5
74 | A26U C31G A43G C89A A121U | -7.24
75 | A27C A29U C56G | -4.23
76 | A26U G39C G61A A83U G110A A121G | -5.04
77 | A27C A29G C62A | -5.73
78 | A26G C124G | 0.285
79 | A26U A46U | -4.63
80 | A26G C62A C89U | -4.69
81 | A26U G71A C72U A90C U106A | -5.08
82 | A26G C72G A100C C115U G128A | -5.88
83 | A26U U59G C62U | -4.33
84 | A26U C56A | -4.03
85 | A26U C56U | -3.38
86 | A26U A46C G63A G120U | -5
87 | A26G G60C C82A | -2.8
88 | A26G C28U G35A U87G C124A | -4.92
89 | A26U C88A A119U | -4.48
90 | A26G C70G G113A | -5.88
91 | A26U C34A C40U G110U | -6.16
92 | A26G U112A U125A | -1.55
93 | A26U G65A G93C C98U C123U | -6.78
94 | A26G C88G C97U C123A | -3.63
95 | A26U G48C A50U C53U | -4.37
96 | A26U G48C C86G | -3.65

Row | Variant | polymerase ribozyme fitness (log ratio)
97 | A26G G44U G61A C99U G120U C124A | -3.22
98 | A27C C62U U92G | -5.85
99 | A26U U38A | -4.53
100 | A26U U78A | -3.18
101 | A26U G48C | -3.53
102 | A26U C49U A84C C124G | -2.34
103 | A26U C64U A118G | -3.85
104 | A26G U33G G61A A84C C98U | -5.59
105 | A27C C72U | -2.78
106 | A26U A43U G45U G63C C89U G120A | -6.22
107 | A26U G71A C94U C123G U132C | -2.78
108 | A26U G52U C56U | -3.49
109 | A26U G51A U54A G69C G117C | -7.56
110 | A26G G48A C49G C73U A121U | -0.344
111 | A26U C49G | -3.57
112 | A27C C79U A91C G120A | -4.64
113 | A27C A29U C56U U106A G122A C123G | -1.35
114 | A27C C53A C82U | -4.15
115 | A27C C56U | -2.85
116 | A26U C53G C73U A100U | -4.47
117 | A26G C56G C97U C99A A111G | -6.74
118 | A26U C70U C114U | -7.55
119 | A26U A46U G61A | -3.77
120 | A26U U54C C86G A121U | -0.876

Row | Variant | polymerase ribozyme fitness (log ratio)
121 | A26U C53G G60A C80U | -4.36
122 | A26G A46G G60U | -3.73
123 | A27C C49G G77U | -5.08
124 | A26G G71U | -3.23
125 | A26G G47A C72U G93C G113A | -6.9
126 | A26G A66U A84U G110U G135U | -5.61
127 | A26U A37G | -2.5
128 | A26U A37C | -2.35
129 | A26G C28U U87C A118U | -2.19
130 | A26U G47A C86G | -2.67
131 | A27C C40G | -4.98
132 | A26U G63U | -3.98
133 | A26U G63A | -5.09
134 | A26U C49A G60A G110A | -4.81
135 | A26G G69A | -4.23
136 | A26U G61U C79U G93C G120C | -3.87
137 | A26U G47C G77A U78A | -5.33
138 | A26G U54A A108G | -4.49
139 | A26U A46C C56A G120U | -4.53
140 | A26G G60U | -2.17
141 | A26G A83C A90G A121C | -0.49
142 | A26U A50U G57C | -4.64
143 | A27C A68G G71U | -6.32
144 | A26U C53U A95U G113A | -6.17

Row | Variant | polymerase ribozyme fitness (log ratio)
145 | A26U G61C U96A C114U G117A | -5.84
146 | A26U C64U | -3.52
147 | A26U C64U C82A G93A | -4.48
148 | A26U A37G C53A G120C C123A | -2.54
149 | A26U A50U | -4.75
150 | A26G G44U U55G C88U | -3.03
151 | A27C C88U | -3.46
152 | A26U G39A G120C C124A G135A | -3.54
153 | A26U C40A G60C | -6.14
154 | A26U G60U | -3.37
155 | A26U G60A | -3.74
156 | A27C C82U U96G U125A U129G | -5.35
157 | A26G C123G C124G | 0.832
158 | A26U C123A | -2.9
159 | A27C C94A | -3.32
160 | A27C C94G | -3.57
161 | A26G C73A A100U | -2.85
162 | A26G C72U | -2.13
163 | A26G A74G G93U U106A U109C | -3.92
164 | A27C A50G G63U G110C U125G | -6.71
165 | A26G C34A G44A C124U | -3.54
166 | A26G G110U | -2.66
167 | A27C C86A | -4.06
